Test results taken from patent US5432156A, “Therapeutic agent for digestive tract diseases” (Nisshin Flour Milling Co., Ltd., priority 1993, dated 1995).

How the values were obtained:
[1] = system: male BALB/c mice; test: Intraperitoneal administration to mice, observation of appearance; format: in vivo; details: 10 mg/kg intraperitoneally, 6 weeks age
[2] = system: intestinal mucosae; test: Example 1: nutritional (trophic) effect on the intestinal mucosae of rats fed an elemental nutrition; format: in vivo, male SD rats
Protocol: An experiment was performed in male SD rats weighing 140-160 g which had been fed on standard food under light-dark condition of a cycle of 12 hours. The food which was replaced by an elemental nutrition (Elental®, Morishita-Roussel Japan) was taken ad lib., and remained unchanged until the experiment was finished. After feeding on the component nutrition for 3 days, administration of glicentin prepared as described below was started.
Gelatin was dissolved in warm water to a weight ratio of 16%, and the solution autoclaved and cooled to room temperature. To 40 ml of the gelatin solution was added a solution of 1 mg of glicentin in 10 ml of distilled water with stirring at room temperature. The mixture was divided into test tubes, freeze dried and stored for use.
The gelatin solution was subcutaneously given at a dose of 10 μg per glicentin every 12 hours for 7 days to examine a nutritional effect of glicentin on the intestinal mucosae. A similar gelatin solution containing no glicentin was given for the same period of time as a control for comparison. Twelve hours after completion of the final administration, the rats were sacrificed and subjected to removal of the small intestine in the region from the Treitz's ligamentum to the cecum. The removed small intestine was cut at the central site to separate it into the jejunum and the ileum. The lumen of each of the intestinal tracts was gently washed with an aqueous physiological saline solution. The intestinal tracts were longitudinally incised, respectively, and tissues were removed of a portion of the jejunum in proximity to the duodenum, a portion of the ileum in proximity to the cecum and a portion around the boundary between the jejunum and the ileum and fixed in a 3.7% formalin solution as the proximal, distal and middle sites of the small intestine, respectively. Mucosae were collected by ablation with a spatula from the remainder of the intestinal tracts and weighed, respectively.
The tissues fixed in the formalin solution were embedded in paraffin to form a preparation which was stained with hematoxylin-eosin and measured for height of the villi using an optical microscope.

[3] = system: intestinal mucosa; test: Example 2: weight of intestinal mucosa in rats, glicentin compared with related peptides; format: in vivo; details: 1 nmol per rat s.c.
[4] = system: motility of the digestive tracts; test: Example 3: motility of the digestive tracts after meal in dogs (strain gauge transducers); format: in vivo, hybrid dogs
Protocol: An experiment was performed as described below in order to examine the action of glicentin on a motility of the digestive tracts after meal.
Six hybrid dogs weighing 16-18 kg were sutured with strain gauge transducers (manufactured by Star Medical, F121S) at a site of the gastric antrum 4 cm from the pyloric ring, a site of the duodenum for the main incurrent pancreatic duct and a site of the jejunum 10 cm from the Treitz's ligamentum, respectively, to measure the contractile force intensity of the circular muscle. Recovery period for the suture was 2 weeks.
Three of the 6 dogs were intravenously given over 1 hour 15 ml of a physiological saline solution in which 400 pmol of glicentin had been dissolved per kg of bodyweight. The remaining three received an aqueous physiological solution containing no glicentin in the same way as above as a control for comparison. The dogs were fed on 15 g of a solid diet (SD®, manufactured by Oriental Yeast K.K.) and 15 g of Vitaone® (manufactured by Nihon Pet Food K.K. and Kyodo Shiryo K.K.) per kg of bodyweight simultaneously with the intravenous administration.
Then, the motor activity of the digestive tracts and length of the post-feed period were measured. Intensity of the contraction in the post-feed period was integrated for the two-hour measurements and evaluated in comparison with the mean level of the signal peak in phase 3 motor activity of the intestinal tracts in hunger and taken as a motor index.

[5] = 10 μg s.c. every 12 hours for 7 days
[6] = 10 μg s.c. every 12 hours for 7 days, hematoxylin-eosin, optical microscope
[7] = 400 pmol/kg i.v. over 1 hour, post-feed contraction integrated over two hours, relative to phase 3 peak in hunger
[8] = 400 pmol/kg i.v., versus control

B1: glicentin (protein)
chain: RSLQDTEEKSRSFSASQADPLSDPDQMNEDKRHSQGTFTSDYSKYLDSRRAQDFVQWLMNTKRNRNNIA
notes: peptide of 69 amino acid residues, one of the enteroglucagons; human glicentin prepared by genetic engineering procedure
[1]
  change in appearance: no change in appearance is observed
[2]; [5]
  Ileal mucosal weight: 1.04 g
  Ileal mucosal weight per 100 g bodyweight: 0.57 g/100 g bodyweight
  Jejunal mucosal weight: 1.3 g
  Jejunal mucosal weight per 100 g bodyweight: 0.75 g/100 g bodyweight
  Length of small intestine: 107.0 cm
  Length of small intestine per 100 g bodyweight: 66.4 cm/100 g bodyweight
  Whole small intestinal mucosal weight: 2.38 g
  Whole small intestinal mucosal weight per 100 g bodyweight: 1.32 g/100 g bodyweight
[2]; [6]
  Villous height in distal intestine: 216 ± 8.4 μm
  Villous height in middle intestine: 354 ± 7.5 μm
  Villous height in proximal intestine: 546 ± 18.6 μm
[2]; versus control group
  effect on ileal mucosa (in words): tendency to increase
  effect on jejunal mucosal weight (in words): significantly increases
  effect on length of the small intestine (in words): tendency to increase
  effect on whole small intestinal mucosal weight including jejunum and ileum (in words): significantly increases
[3]; versus control group
  effect on the weight of intestinal mucosa (in words): significantly increases
[3]; third quarter of the small intestine from the duodenum
  Intestinal mucosal weight: 0.614 ± 0.025 g
[4]; 400 pmol/kg i.v. over 1 hour, given with feeding
  Length of post-feed period: 13.6 ± 1.0 h
[4]; [7]
  Motor index, duodenum: 0.675 ± 0.4
  Motor index, jejunum: 1.087 ± 0.2
  Motor index, stomach vestibulum: 0.878 ± 0.1
[4]; [8]
  influence upon the length of the post-feed period (in words): no influence
  post-feed motility in the vestibulum of stomach (in words): inhibited
